The results in this text go back to PMC2607524, “The role of conserved residues of chagasin in the inhibition of cysteine peptidases” (Febs Letters, 2008).

First the molecules themselves.
B1: chagasin ΔT31–T32 (devoid of residues T31 and T32) (natural protein)
chain: MSHKVTKAHNGATLTVAVGELVEIQLPSNPGFAWYFEGGTKESPNESMFTVENKYFPPDSKLLGAGGTEHFHVTVKAAGTHAVNLTYMRPWTGPSHDSERFTVYLKAN
notes: source: E. coli M15/pRep4, purified (Ni metal chelate column, HQ ion exchange)
B2: chagasin (recombinant His-tagged wild type) (natural protein)
chain: MSHKVTKAHNGATLTVAVGELVEIQLPSNPTTGFAWYFEGGTKESPNESMFTVENKYFPPDSKLLGAGGTEHFHVTVKAAGTHAVNLTYMRPWTGPSHDSERFTVYLKAN
notes: also called WT; wild type chagasin; source: E. coli M15/pRep4, purified (Ni metal chelate column, HQ ion exchange)
B3: chagasin T32E (natural protein)
chain: MSHKVTKAHNGATLTVAVGELVEIQLPSNPTEGFAWYFEGGTKESPNESMFTVENKYFPPDSKLLGAGGTEHFHVTVKAAGTHAVNLTYMRPWTGPSHDSERFTVYLKAN
notes: pQE30 construct as m1; also called pGL1197; source: E. coli M15/pRep4, purified (Ni metal chelate column, HQ ion exchange)
B4: chagasin T32S (natural protein)
chain: MSHKVTKAHNGATLTVAVGELVEIQLPSNPTSGFAWYFEGGTKESPNESMFTVENKYFPPDSKLLGAGGTEHFHVTVKAAGTHAVNLTYMRPWTGPSHDSERFTVYLKAN
notes: pQE30 construct as m1; also called pGL1195; source: E. coli M15/pRep4, purified (Ni metal chelate column, HQ ion exchange)
B5: chagasin Y89F (natural protein)
chain: MSHKVTKAHNGATLTVAVGELVEIQLPSNPTTGFAWYFEGGTKESPNESMFTVENKYFPPDSKLLGAGGTEHFHVTVKAAGTHAVNLTFMRPWTGPSHDSERFTVYLKAN
notes: pQE30 construct as m1; also called pGL1119; source: E. coli M15/pRep4, purified (Ni metal chelate column, HQ ion exchange)
B6: chagasin P30A (natural protein)
chain: MSHKVTKAHNGATLTVAVGELVEIQLPSNATTGFAWYFEGGTKESPNESMFTVENKYFPPDSKLLGAGGTEHFHVTVKAAGTHAVNLTYMRPWTGPSHDSERFTVYLKAN
notes: pQE30 construct as m1; also called pGL1194; source: E. coli M15/pRep4, purified (Ni metal chelate column, HQ ion exchange)
B7: chagasin T31A/T32A double mutant (natural protein)
chain: MSHKVTKAHNGATLTVAVGELVEIQLPSNPAAGFAWYFEGGTKESPNESMFTVENKYFPPDSKLLGAGGTEHFHVTVKAAGTHAVNLTYMRPWTGPSHDSERFTVYLKAN
notes: pQE30 construct as m1; also called pGL1258; source: E. coli M15/pRep4, purified (Ni metal chelate column, HQ ion exchange)
B8: chagasin T31V (natural protein)
chain: MSHKVTKAHNGATLTVAVGELVEIQLPSNPVTGFAWYFEGGTKESPNESMFTVENKYFPPDSKLLGAGGTEHFHVTVKAAGTHAVNLTYMRPWTGPSHDSERFTVYLKAN
notes: pQE30 construct as m1; also called pGL1298; source: E. coli M15/pRep4, purified (Ni metal chelate column, HQ ion exchange)
B9: chagasin T31S (natural protein)
chain: MSHKVTKAHNGATLTVAVGELVEIQLPSNPSTGFAWYFEGGTKESPNESMFTVENKYFPPDSKLLGAGGTEHFHVTVKAAGTHAVNLTYMRPWTGPSHDSERFTVYLKAN
notes: pQE30 construct as m1; also called pGL1299; source: E. coli M15/pRep4, purified (Ni metal chelate column, HQ ion exchange)
B10: chagasin W93A (natural protein)
chain: MSHKVTKAHNGATLTVAVGELVEIQLPSNPTTGFAWYFEGGTKESPNESMFTVENKYFPPDSKLLGAGGTEHFHVTVKAAGTHAVNLTYMRPATGPSHDSERFTVYLKAN
notes: pQE30 construct as m1; also called pGL1199; source: E. coli M15/pRep4, purified (Ni metal chelate column, HQ ion exchange)
B11: chagasin Y89S (natural protein)
chain: MSHKVTKAHNGATLTVAVGELVEIQLPSNPTTGFAWYFEGGTKESPNESMFTVENKYFPPDSKLLGAGGTEHFHVTVKAAGTHAVNLTSMRPWTGPSHDSERFTVYLKAN
notes: pQE30 construct as m1; also called pGL1120; source: E. coli M15/pRep4, purified (Ni metal chelate column, HQ ion exchange)
B12: chagasin T32A (natural protein)
chain: MSHKVTKAHNGATLTVAVGELVEIQLPSNPTAGFAWYFEGGTKESPNESMFTVENKYFPPDSKLLGAGGTEHFHVTVKAAGTHAVNLTYMRPWTGPSHDSERFTVYLKAN
notes: pQE30 construct as m1; also called pGL1211; source: E. coli M15/pRep4, purified (Ni metal chelate column, HQ ion exchange)
B13: chagasin T32Y (natural protein)
chain: MSHKVTKAHNGATLTVAVGELVEIQLPSNPTYGFAWYFEGGTKESPNESMFTVENKYFPPDSKLLGAGGTEHFHVTVKAAGTHAVNLTYMRPWTGPSHDSERFTVYLKAN
notes: pQE30 construct as m1; also called pGL1198; source: E. coli M15/pRep4, purified (Ni metal chelate column, HQ ion exchange)
B14: chagasin T31Y (natural protein)
chain: MSHKVTKAHNGATLTVAVGELVEIQLPSNPYTGFAWYFEGGTKESPNESMFTVENKYFPPDSKLLGAGGTEHFHVTVKAAGTHAVNLTYMRPWTGPSHDSERFTVYLKAN
notes: pQE30 construct as m1; also called pGL1210; source: E. coli M15/pRep4, purified (Ni metal chelate column, HQ ion exchange)
B15: chagasin T32V (natural protein)
chain: MSHKVTKAHNGATLTVAVGELVEIQLPSNPTVGFAWYFEGGTKESPNESMFTVENKYFPPDSKLLGAGGTEHFHVTVKAAGTHAVNLTYMRPWTGPSHDSERFTVYLKAN
notes: pQE30 construct as m1; also called pGL1196; source: E. coli M15/pRep4, purified (Ni metal chelate column, HQ ion exchange)
B16: chagasin T31A (natural protein)
chain: MSHKVTKAHNGATLTVAVGELVEIQLPSNPATGFAWYFEGGTKESPNESMFTVENKYFPPDSKLLGAGGTEHFHVTVKAAGTHAVNLTYMRPWTGPSHDSERFTVYLKAN
notes: pQE30 construct as m1; also called pGL1209; source: E. coli M15/pRep4, purified (Ni metal chelate column, HQ ion exchange)

The target of the first test is T1, cruzipain (Trypanosoma cruzi, UniProt P25779 123-467).
T1 construct: also called T. cruzi CP cruzipain; major cysteine peptidase of T. cruzi
Description: enzyme inhibition kinetics (Ki for tight-binding inhibitors); peptidase incubated with different chagasin concentrations for 15 min at room temperature, residual hydrolysis of 5 μM Z-Phe-Arg-MCA; Ki from Kiapp with KM 1.5, 2.5 and 60 μM for cruzipain, cathepsin L and papain; methods: RB buffer (50 mM Na2PO4, pH 6.5, 200 mM NaCl, 5 mM EDTA, 2.5 mM DTT), 25 °C; footnote of Table 2: 50 mM Na2HPO4, 100 mM NaCl, 5 mM …. The note with it: both partners purified.
Molecule B1 came in with a Ki of 5.87 nM. Regarding B2, the Ki worked out at 0.0076 nM. Same read-out and setting: with B3 the figure was 0.011 nM; with B4, 0.02 nM; with B5, 0.02 nM. Molecule B6 had a Ki of 0.02 nM. The molecule B7 yielded a Ki of 1.06 nM. As to B8, the Ki was 0.07 nM. Still for that read-out and setting: the figure for B9 is 0.011 nM; for B10 it is 0.031 nM. Molecule B11 displayed a Ki of 0.025 nM. Still for that read-out and setting: the figure for B12 is 0.016 nM; for B13 it is 0.016 nM; for B14 it is 0.747 nM. Turning to B15, the Ki turned out to be 0.193 nM. Molecule B16 showed a Ki of 0.317 nM.

For the next test, the target named is human cathepsin L (human). The test can be described thus: enzyme inhibition kinetics (Ki for tight-binding inhibitors); peptidase incubated with different chagasin concentrations for 15 min at room temperature, residual hydrolysis of 5 μM Z-Phe-Arg-MCA; Ki from Kiapp with KM 1.5, 2.5 and 60 μM for cruzipain, cathepsin L and papain; methods: RB buffer (50 mM Na2PO4, pH 6.5, 200 mM NaCl, 5 mM EDTA, 2.5 mM DTT), 25 °C; footnote of Table 2: 50 mM Na2HPO4, 100 mM NaCl, 5 mM EDTA, pH 6.5, 5% DMSO, 2.5 mM DTT, 28 °C.
Conditions: not given
In the case of “chagasin T32S (from UniProt Q966X9 1-110) (natural protein)”, the Ki was determined as 0.032 nM.

The molecule “chagasin ΔT31–T32 (devoid of residues T31 and T32) (from UniProt Q966X9 1-110) (natural protein)” displayed a Ki of 2.2 nM. Same read-out and setting: the figure for “chagasin T31A (from UniProt Q966X9 1-110) (natural protein)” is 0.0039 nM; for “chagasin T31Y (from UniProt Q966X9 1-110) (natural protein)” it is 0.0068 nM; for “chagasin T31S (from UniProt Q966X9 1-110) (natural protein)” it is 0.0049 nM. Molecule “chagasin T32Y (from UniProt Q966X9 1-110) (natural protein)” came in with a Ki of 0.0027 nM. On the same count and under the same terms, the figure for “chagasin P30A (from UniProt Q966X9 1-110) (natural protein)” is 0.045 nM.

For the molecule “chagasin W93A (from UniProt Q966X9 1-110) (natural protein)”, the Ki amounted to 0.825 nM. As for “chagasin T31V (from UniProt Q966X9 1-110) (natural protein)”, the Ki worked out at 0.0097 nM. Still for that read-out and setting: the figure for “chagasin T31A/T32A double mutant (from UniProt Q966X9 1-110) (natural protein)” is 0.0018 nM; for “chagasin T32A (from UniProt Q966X9 1-110) (natural protein)” it is 0.014 nM; for “chagasin T32V (from UniProt Q966X9 1-110) (natural protein)” it is 0.02 nM. Take B2: the Ki came out at 0.0073 nM.

The next test has as its target T2, papain (UniProt P00784 134-345).
T2 construct: source: bought: Sigma
T2 sequence (looked up): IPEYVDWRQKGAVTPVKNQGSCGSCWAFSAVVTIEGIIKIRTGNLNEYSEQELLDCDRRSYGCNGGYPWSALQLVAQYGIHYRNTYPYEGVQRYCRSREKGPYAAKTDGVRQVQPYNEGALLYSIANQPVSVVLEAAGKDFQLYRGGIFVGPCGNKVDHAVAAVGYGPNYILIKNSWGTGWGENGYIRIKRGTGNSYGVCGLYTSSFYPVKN
Description: enzyme inhibition kinetics (Ki for tight-binding inhibitors); peptidase incubated with different chagasin concentrations for 15 min at room temperature, residual hydrolysis of 5 μM Z-Phe-Arg-MCA; Ki from Kiapp with KM 1.5, 2.5 and 60 μM for cruzipain, cathepsin L and papain; methods: RB buffer (50 mM Na2PO4, pH 6.5, 200 mM NaCl, 5 mM EDTA, 2.5 mM DTT), 25 °C; footnote of Table 2: 50 mM Na2HPO4, 100 mM NaCl, 5 mM …. To be noted: both partners purified.
In the case of B2, the Ki worked out at 0.005 ± 0.0007 nM.

For the molecule B5, the binding result is given as “binds”.

The molecule B7 registered a Ki of 0.027 ± 0.0015 nM.

Take B11: the Ki came out at 0.316 ± 0.017 nM.
